B1: GPC-B antibody 18.5C (IgG) (antibody, V domains shown)
VH: EVQLVQSGGGLVRPGGSLRLSCAAAGFTFKSYSMNWVRQAPGRGLEWVSSITSGGSKTYYADVVKGRFTVSRDNAKQSLYLQMNSLRAEDTAIYFCARSLHSTSQPSYMDVWGRKITVIVSS
VL: DIVLTQSPGTLSLSPGERATLSCRASQSVISYYVAWYQHKGGQAPRLLIYGASSRATGVPDRFSGSGSGTDFTLTISSLEPEDFALYYCQYYGSSPLWAFGQGTKVEIK
notes: copies: 2 + 2
B2: engineered GPC-B antibody 18.5C-M30 (IgG) (antibody, V domains shown)
VH: EVQLVQSGGGLVRPGGSLRLSCAAAGFTFKSYSMNWVRQAPGRGLEWVSSITSRGGSKTYYADVVKGRFTVSRDNAKQSLYLQMNSLRAEDTAIYFCARSRHSTSQPSYMDVWGRKITVIVSS
VL: B1 VL
notes: copies: 2 + 2
B3: GPC-A antibody 25.10C (IgG) (antibody, V domains shown)
VH: QVQLQESGGGLVKPGGSLRLSCTASGFNFNKYNMNWVRQAPGKGLEWVSSISALSTYIYYADSLKGRFTVSRDNAKNSLFLQMNSLRDDDTAVYYCAREIRRASTWSADLWGRGTLVTVSS
VL: DIQMTQSPSSLSASVGDRVIITCRASQSISSSLNWYQQKPGKAPKLLIYAAVNLETGVPSRFSGSGFGTDFTLAISNVQPEDFATYYCQQSDTRTFGRGTKLDVK
notes: copies: 2 + 2

What follows are binders tested against LIV-GP, soluble lineage IV LASV pfGP monomer (Lassa virus lineage IV, strain Josiah, stabilised) (assay: BLI; Octet Red384; […] (AHC) capture sensors at 2.5 ug/mL; […]; 1x kinetics buffer (PBS, 0.1% BSA, 0.02% Tween 20); 1:1 fit; […]). Conditions: both partners purified.
In the case of B1, the Kd is reported as 0.091 nM, the koff is reported as 7.8e-05 s⁻¹ and the kon is reported as 858000 M⁻¹ s⁻¹. B2 was tested, and the Kd was 0.047 nM, the koff was 3.67e-05 s⁻¹ and the kon was 780000 M⁻¹ s⁻¹. B3 gave a Kd of less than 0.001 nM, a koff of less than 1e-07 s⁻¹ and a kon of 150000 M⁻¹ s⁻¹.

What follows are binders tested against LI-LASV-pfGP soluble ectodomain monomer (lineage I Lassa virus prefusion glycoprotein) (Lassa virus lineage I, strain Pinneo, stabilised) in the same assay as above. Conditions: both partners purified.
For B1, the Kd was 2.86 nM, the koff was 0.00235 s⁻¹ and the kon was 819000 M⁻¹ s⁻¹. B2 was tested, and the Kd was 0.559 nM, the koff was 0.000423 s⁻¹ and the kon was 757000 M⁻¹ s⁻¹. B3 gave a Kd of 3.52 nM, a koff of 0.000387 s⁻¹ and a kon of 110000 M⁻¹ s⁻¹.

From publication PMC9426445 (mBio, 2022)
